In patent publication US20230322943A1 (SUNSHINE GUOJIAN PHARMACEUTICAL SHANGHAI, published 2023):

B1: 50G12-Humanized (antibody, human IgG1, kappa, V domains shown)
VH: QVQLVQSGAEVKKPGASVKVSCKASGYTFNTYWMQWVRQAPGQGLEWMGAIYPGDGDITYNQKFKGRVTLTADKSTSTVYMELSSLRSEDTAVYYCAREGYYYGGALDYWGQGTLVTVSS
VL: DIQMTQSPSSLSASVGDRVTITCTASSSVSSSYLHWYQQKPGKAPKLWMYGTSNLASGVPSRFSGSGSGTDYTLTISSLQPEDFATYYCHRYHRSPWTFGQGTKVEIKR
notes: Human IgG1 / Kappa; also called humanized antibody 50G12-Humanized; 50G12-Hu-HC / 50G12-Hu-LC
B2: murine antibody 50G12 (antibody, V domains shown)
VH: QVQLQQSGAELARPGASVKLSCKASGYTFNTYWMQWVKQRPGQGLEWIGAIYPGDGDITYNQKFKGKATLTADKSSNTAYMHLSSLASEDSAVYYCAREGYYYGGALDYWGQGTSVTVSS
VL: QIFLTQSPAIMSASLGERVTMTCTASSSVSSSYLHWYQQKPGSPPKLWMYGTSNLASGVPPRFSGSGSGTSYSLTISSMEAEDAATYYCHRYHRSPWTFGGGTKLEIK
notes: Mouse monoclonal antibody purified from hybridoma supernatant by Protein G; also called 50Ga12; 50G12 murine antibody
B3: 50G12-Chimeric (antibody, human IgG1, V domains shown)
VH: QVQLQQSGAELARPGASVKLSCKASGYTFNTYWMQWVKQRPGQGLEWIGAIYPGDGDITYNQKFKGKATLTADKSSNTAYMHLSSLASEDSAVYYCAREGYYYGGALDYWGQGTSVTVSS
VL: QIFLTQSPAIMSASLGERVTMTCTASSSVSSSYLHWYQQKPGSPPKLWMYGTSNLASGVPPRFSGSGSGTSYSLTISSMEAEDAATYYCHRYHRSPWTFGGGTKLEIK
notes: Murine 50G12 VH joined to the human IgG1 heavy chain constant region and murine 50G12 VL joined to the human Kappa chain constant region; also called 50G12-Chimeic; 50G12-Chi-HC / 50G12-Chi-LC

Tests used:
[1] = biological target: T1, human full-length CD38 on cells (human, UniProt P28907 1-300); test: flow cytometry on Daudi cells (MFI), FITC goat anti-human Fc secondary antibody
T1 construct: whole, on cells; One molecule is used for cell-surface human CD38; also called CD38 on CHOS-CD38 cells; CD38 on the surface of Daudi cells
Method: After Daudi cells were counted, PBS solution containing 1% BSA was used to inoculate the cells into 96-well round-bottom culture plates with 2×10⁵ cells per well. 50 µl anti-CD38 antibody in gradient dilution with PBS solution was added to the 96-well plate. The plate was incubated at room temperature for 1 h, then it was centrifuged to discard the supernatant. Then the cells was washed with PBS twice. FITC-labeled goat anti-human (Fc-Speicific) antibody was added (1:1000 diluted with PBS containing 1% BSA) and the plate was incubated at room temperature for half an hour. The cells was centrifuged and washed, then the Mean Fluorescence Intensity (MFI) of the FITC channel was detected by flow cytometry. The flow cytometer software was used to process the experimental data and the mean fluorescence intensity was calculated. The GraphPad Prism6 was used for data analysis and mapping, and EC50 was calculated.

[2] = biological target: T1, human full-length CD38 on cells; test: cell-based or functional assay
human CD38-Fc protein = biological target: T2, human CD38-Fc protein (human, UniProt P28907 43-300); test: indirect ELISA, CD38-Fc coated at 1 ug/ml, HRP goat anti-mouse IgG
T2 construct: extracellular domain; Recombinant Fc-tagged extracellular segment of human CD38; not shown: Fc tag

[3] = biological target: T1, human full-length CD38 on cells; test: flow cytometry on DND-41 tumor cells, PE secondary antibody
From the text: (§1) Flow cytometry was used to detect the binding activity of murine antibodies to recombinant high-expression cell line CHOS-CD38 cells and tumor cell line DND-41 cells. The specific methods were as follows:
(§2) CHOS-CD38 and DND-41 cells were collected, centrifuged to remove the cell culture medium, and the cells were washed twice with PBS buffer. The cells were counted and diluted with 1%BSA FACS buffer to 2^{∗}10⁶ cells/ml. The cells were spread into round-bottom 96-well plate for use. The antibody to be tested was diluted with 1%BSA buffer for 8 gradients and added to the round-bottom plate with the above cells. The plate was incubated at 4° C. for 1 hour. After centrifugation, the supernatant was removed and the plate was washed 3 times with 1% BSA FACS buffer. 100 µl donkey anti-mouse PE fluorescent secondary antibody or goat anti-human PE fluorescent secondary antibody was added to each well at a ratio of 1:300 (see the instructions for fluorescent secondary antibody for details), and the plate was incubated at 4° C. for 1 hour. The samples were washed for 3 times with 1% BSA FACS buffer and then re-suspended with 1% BSA FACS buffer at 200 µl/well. FACScalibur BD was used to analyze the samples.

[4] = biological target: T1, human full-length CD38 on cells; test: flow cytometry on CHOS-CD38 cells, PE secondary antibody
From the text: as §1, §2

Row | Binder | EC50 [1] [nM] | ADCC EC50 (Daudi target cells, human PBMC effectors, LDH release) [2] [nM] | apoptosis induction EC50 (Daudi cells, Annexin V-FITC) [2] [nM] | EC50 (human CD38-Fc protein) [nM] | EC50 [3] [µg/mL] | EC50 [4] [µg/mL]
1 | B1 | 0.605 | 0.106 | 0.568 | – | – | –
2 | B2 | – | – | – | 0.173 | 0.134 | 0.687
3 | B3 | 0.528 | – | – | – | – | –
